Source: US6916917B1, “Chimeric pro-caspases and methods of using same” (California Institute of Technology, priority 1998, dated 2005)

Target: T1, pro-caspase-8 (Homo sapiens, UniProt P62942+Q14790)
T1 construct: in vitro translated, ^35S-labeled Fkp3-Casp8(206); made in house; host or cells: cell-free in vitro transcription/translation, TNT Reticulocyte Lysate System (Promega)
Test: Cell-free processing of pro-caspase-8 (in vitro translated, 35S-labeled, SDS-PAGE autoradiography)
Assay type: biochemical
Conditions: AP1510 100 nM; FK506 100 nM; Z-DEVD 10 μM
Method: In vitro transcription and translation of the indicated constructs with ^35S-labeled methionine were carried out with the TNT Reticulocyte Lysate System (Promega; Madison Wis.). The reaction mixture contained 1 μl of the in vitro translation product and the indicated drugs dissolved in 3 μl of CED3 reaction buffer (Xue et al., Genes Devel. 10:1073-1083 (1996), which is incorporated herein by reference). Final drug concentrations of 100 nM of AP1510 or FK506 and 10 μM of Z-Asp-Glu-Val-Asp(SEQ ID NO:1)(Z-DEVD; Enzyme System Products; Calif.) were used. The reaction mixture was incubated in 30° C. for 4 hr, then the reaction stopped by the addition of SDS sample buffer. Reaction products were visualized by SDS-PAGE and autoradiography.

T1 sequence (P62942+Q14790 fused): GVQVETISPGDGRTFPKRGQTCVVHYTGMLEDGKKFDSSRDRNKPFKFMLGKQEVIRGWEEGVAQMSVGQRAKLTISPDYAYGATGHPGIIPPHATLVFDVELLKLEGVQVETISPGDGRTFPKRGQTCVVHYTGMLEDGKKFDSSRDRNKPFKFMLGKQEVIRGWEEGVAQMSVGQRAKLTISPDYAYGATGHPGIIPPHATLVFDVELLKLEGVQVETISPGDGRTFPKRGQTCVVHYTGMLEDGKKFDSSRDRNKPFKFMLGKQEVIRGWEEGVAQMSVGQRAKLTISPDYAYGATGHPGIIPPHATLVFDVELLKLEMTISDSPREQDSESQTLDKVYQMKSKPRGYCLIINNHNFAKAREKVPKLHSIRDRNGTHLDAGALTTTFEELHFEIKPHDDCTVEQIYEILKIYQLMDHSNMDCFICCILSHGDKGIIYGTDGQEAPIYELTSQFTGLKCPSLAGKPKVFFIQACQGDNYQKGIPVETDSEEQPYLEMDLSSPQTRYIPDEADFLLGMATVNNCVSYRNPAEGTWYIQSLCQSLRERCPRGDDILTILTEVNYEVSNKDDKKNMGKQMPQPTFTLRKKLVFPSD

## Z-Asp-Glu-Val-Asp (ZDEVD; N-terminal benzyloxycarbonyl (Z); enzyme used in cell-free processing of Pro-Caspase-8) [z-DEVD]
  effect on AP1510-initiated cell-free processing of Fkp3-Casp8(206): inhibited
